From PMC11699742 come the findings set out here.

The experiment deals with α-Synuclein (UniProt P37840).

DnaK from E. coli, sequence (P0A6Y8 whole entry): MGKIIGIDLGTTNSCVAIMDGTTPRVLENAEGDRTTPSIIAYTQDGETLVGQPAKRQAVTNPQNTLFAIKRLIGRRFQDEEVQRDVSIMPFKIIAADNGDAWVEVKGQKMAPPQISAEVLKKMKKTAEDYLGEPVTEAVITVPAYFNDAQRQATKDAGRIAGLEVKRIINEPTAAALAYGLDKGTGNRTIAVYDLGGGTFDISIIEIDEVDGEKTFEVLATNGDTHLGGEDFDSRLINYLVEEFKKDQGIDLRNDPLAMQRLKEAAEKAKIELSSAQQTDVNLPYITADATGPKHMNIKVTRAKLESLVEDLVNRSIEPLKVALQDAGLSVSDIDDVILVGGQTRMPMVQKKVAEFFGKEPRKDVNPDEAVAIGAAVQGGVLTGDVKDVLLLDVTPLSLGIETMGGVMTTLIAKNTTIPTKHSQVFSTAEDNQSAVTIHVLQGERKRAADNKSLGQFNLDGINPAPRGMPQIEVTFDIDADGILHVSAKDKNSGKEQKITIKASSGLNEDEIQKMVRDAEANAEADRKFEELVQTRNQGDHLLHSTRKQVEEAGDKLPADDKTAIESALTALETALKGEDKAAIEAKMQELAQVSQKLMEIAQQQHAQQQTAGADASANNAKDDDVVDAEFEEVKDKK

Take “DnaK from E. coli (from UniProt P0A6Y8 1-638) (natural protein)”: the ThT fibrillation of 50 µM α-Syn monomer with 0.5 µM DnaK, with 2 mM ATP: relative decrease in vmax (1.32 h^-1 to 0.49 h^-1) and end signal (176,900–53,000) worked out at 64%; the ThT fibrillation of 50 µM α-Syn monomer with 0.5 µM DnaK, without ATP: relative decrease in vmax (0.99 h^-1 to 0.55 h^-1) and end signal (43,000-24,600) was 45%.
